Legend:
[1] = molecular target: human GLUT-1 glucose transporter, endogenous on cells (the 'HTLV receptor' on HeLa, 293T, Jurkat cells and human erythrocytes) (human) (UniProt P11166); experiment: cell-based or functional assay
[2] = molecular target: human GLUT-1 glucose transporter, endogenous on cells (the 'HTLV receptor' on HeLa, 293T, Jurkat cells and human erythrocytes) (human) (UniProt P11166)

Chain of human GLUT-1 glucose transporter, endogenous on cells (the 'HTLV receptor' on HeLa, 293T, Jurkat cells and human erythrocytes) (human) (P11166 whole entry): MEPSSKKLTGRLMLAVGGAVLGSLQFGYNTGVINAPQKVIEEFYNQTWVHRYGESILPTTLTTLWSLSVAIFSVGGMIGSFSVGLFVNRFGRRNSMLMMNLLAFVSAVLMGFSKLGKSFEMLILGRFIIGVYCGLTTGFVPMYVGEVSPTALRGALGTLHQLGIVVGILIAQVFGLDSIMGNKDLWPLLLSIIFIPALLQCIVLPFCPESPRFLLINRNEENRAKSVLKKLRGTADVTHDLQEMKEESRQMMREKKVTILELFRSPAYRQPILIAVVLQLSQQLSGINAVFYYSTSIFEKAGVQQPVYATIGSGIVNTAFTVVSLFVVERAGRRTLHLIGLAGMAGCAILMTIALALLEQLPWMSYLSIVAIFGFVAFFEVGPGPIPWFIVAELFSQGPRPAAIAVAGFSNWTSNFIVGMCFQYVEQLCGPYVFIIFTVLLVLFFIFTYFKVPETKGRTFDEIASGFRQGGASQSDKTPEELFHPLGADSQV

Substance: H183FEnv, non-syncytial chimeric envelope with the N-terminal 183 amino acids of the HTLV-1 receptor
- Lactate accumulation in culture supernatant [1]: 3 fold lower

Substance: HTLV-1 RBD (H1RBD), first 215 residues of HTLV-1 SU fused to a C-terminal rabbit IgG Fc tag (rFc) (Fc fusion)
- fold increase of binding after overnight culture without glucose [2]: 2 fold
- 2-deoxyglucose uptake (fold decrease) [1]: 4
- Lactate accumulation in culture supernatant [1]: 3 fold lower

Substance: HTLV-2 RBD (H2RBD), first 178 residues of HTLV2-SU fused to a C-terminal rabbit IgG Fc tag (rFc) (from UniProt P01868 98-324) (Fc fusion)
- 2-deoxyglucose uptake (fold decrease) [1]: 4
- HTLV titers (infection of 293T cells by MLV particles pseudotyped with HTLV-2 envelope) [1]: 2 logs

Source: patent US20180002383A1
